± gives the half width of the 95% confidence interval.
Experiment: folding stability dG unfold from chymotrypsin proteolysis; higher = more stable
Procedure, shortened: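 Unfolding free energy was derived, per protease or combined, by relating Bayesian-fitted K50 values from sequencing counts to a sequence-predicted unfolded-state K50 and a shared folded-state K50. The underlying digests exposed cysteine-free mini-proteins under 80 residues, in a PA-tagged cDNA display construct, to trypsin and chymotrypsin at 11 threefold-diluted concentrations and to a no-protease condition. A filter kept only designs with AlphaFold2 dimer inter-PAE above 15.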

Row | Sequence | folding stability dG unfold [kcal/mol]
1 | SAGGSAGGSAGGMLSTNVTRTITLTYFDPNGSKPIETQTVTVTTFVEIFQEPVGNWTAASAGGSAGGSAGGS [r10_50_JUSTAS] | 0.759 ± 0.21
2 | SKFKIDEIKYEPNKPYTIKVKLPDGTTIEIKYDPNKPNEVKIILTHPDGSKKEFTLPYNYPININLKVNPSA [r9_875_TrMRF] | 2.05 ± 0.081
3 | SAGGMPIKELTAEEIAALLKEKLGVDVEIEEVKVTVERDENGNYVLRIEVKFKETNETITLEIVLPKSAGGS [r16_42_TrROS_Hall] | 4.2 ± 0.16
4 | SAGGSAGGSAGKKKKKKLVRVRITYKNGKKKEFVFKTKEEAEKALKEEFNIEKIEIEEIPSAGGSAGGSAGG [r17_508_TrROS_Hall] | 3.66 ± 0.068
5 | SAGGSAGGSAGENKPIKVLVFLEKEDEYYEELFEFDSPEEIEEWLKKIPKDYKVKKVIVFSAGGSAGGSAGG [r17_410_TrMRF] | 3.95 ± 0.14
6 | SAGGSAGGSAGGKKTITVPKGAVVRITYKNGEKKEVKAGETITIEDLPEDVKIEVVKVKKSAGGSAGGSAGG [r7_968_TrROS_Hall] | 2.44 ± 0.03
7 | SAGGETRTFMFPFKPGMPLEEIIEELIDVLQKKGKDYPIEFKPIEPDPNGYMLFMATVTNNKITIFWSAGGS [r8_7_TrROS] | 3.03 ± 0.083
8 | SYSIDTSKIEEAAAALPPNAVAELELTANVPESGFTLKLKVTITVDPAGKVTRITFTDPATGKKIATVDVGS [r1_165_JUSTAS] | 1.52 ± 0.11
9 | SAGGSAKKKKKKKKKKKKKKEKKEVVIVIKAKSKEEAEKAVKKLLEELQKKYNIPLPKNVKVIILPSAGGSA [r15_496_TrROS_Hall] | 4.34 ± 0.24
10 | SVDPAKEKVVLRFTVTFPVPPELGPITADELAALVREILEAFGYEIVSVTVTVEGDRVTVTVEAVFDKRGSA [r9_1134_TrMRF] | 5.21 ± 0.086
11 | SAMKVYIAASSPEEIEGWIEEARKAGIDGPELIFVSPDDRVYKAEIIPNTGEVKIEPVKPIEELLKELPSAG [r14_913_TrMRF] | 0.788 ± 0.4
12 | SKTIMFQFDSIEEIKDFIKEAIDDGDPDQKIRIEWYPPGGRRQEHEIESPEDIIDFLENGPYWIRVEIEPSA [r9_589_TrROS] | 2.16 ± 0.047
13 | SAGGSAGGSAGGSKKKKKKKKKKVVKLTVLIEKDGELYLVEIEFDKDGKIVSISVEKLPSAGGSAGGSAGGS [r4_192_TrROS_Hall] | 4 ± 0.27
14 | SAGGKIKKGETVKIKIEIENKNGEKKTIELEVKKEDLEKLKELIEKLKEKGFKIKKIEIKVLKKEKKSAGGS [r8_497_TrROS_Hall] | 2.96 ± 0.03
15 | SAPPKTRTREIEIRFDDYYVRIKITWTKDGNLKLDIEFQGPNPVMREQIKDFLEELNPDFEITDIEVYRSAG [r14_611_TrROS] | 2.67 ± 0.057
16 | SAGGGSLEKIREAGKKGYLVRIELETGERRVIPIEDLIRDPRFGPDVPLAELRVRRIELLPPDDGLPLSAGG [r13_587_TrMRF] | 0.889 ± 0.069

Row | Sequence | folding stability dG unfold [kcal/mol]
17 | SAMVLKVEEEPFPPNAKREVKEIRKDPNSDNLFKVKIELEKSPDPSVTSAKVITIPPDGSKKVEEKVLESAG [r14_10_JUSTAS] | 0.47 ± 0.19
18 | MKEYLIKIKITITDPNGKKREIEITVLVPAEELTEEQLKELLEKAKELAEKLKEKGYEVKVEVEIIPLEELS [r1_221_TrROS_Hall] | 4.23 ± 0.21
19 | SMVKIYFPNAPPELVAEAIEKHPDSTVEIYFEPGKPDVFESILKDYDVEVEPFPTEDGRLLVKARVKVPGSA [r9_1138_TrMRF] | 1.32 ± 0.12
20 | SAGGEMVTIRVRAPDPEKLIEALREEFPEGLTIRPFPRPTPDGYEVLIVVPAERPEELLEAVERAIGSAGGS [r16_43_TrMRF] | 2.17 ± 0.022
21 | SAGGSAGGMKIKVKFTITKSDPNSDSPVPRVITKEFESLEEAEKEFNKLKNLPSGYTVEVEIVESAGGSAGG [r7_0_JUSTAS] | 3.82 ± 0.043
22 | SAGGSADENGKPKPTLIIKIEVEHPNGQKFPLSFIFKSPEEAEEIANELANNGYEVNIRLMPLDQISAGGSA [r15_906_TrROS] | 1.71 ± 0.044
23 | SAGGWRYILRQIREAAKNGEEVTINFPPGMNPSFLLSWIRKENGAEVKPITVKPNPNGYGTINIKVKSAGGS [r16_318_TrROS] | 2.02 ± 0.057
24 | SAGGRVDVRVERVGEGAVITLLADVEDPEPLVELLEASGLPVELARIEPVRDPVTGRLLVRAVFRVPSAGGS [r16_699_TrMRF] | 1.14 ± 0.082
25 | SAGGSAMAYLVRAELEVEGPDGRRERLELVLVAEDLPLEEALAAAREAAAELGAELVSVEVEPLEPSAGGSA [r15_550_TrMRF] | 2.55 ± 0.039
26 | SAGGSAGGSAGKKLKPFKVVEVKEPVKEGDVIEVENEATGELYRFTVVNGEIKIEKVKLDSAGGSAGGSAGG [r11_94_TrROS_Hall] | 0.442 ± 0.21
27 | SAGGSAGGSAGWGLIITIEVEGEYDPANGQWSLNIEIEIQPIRIPPPKEPPPDDNPNNDDSAGGSAGGSAGG [r17_454_TrROS] | 4.08 ± 0.15
28 | SPAGELVSSTFPVTVTVTVWRRLPDGTWTPVGTETFTVTVTVAGIPEEVAEALRKAAETPPPPPNLAGLLSA [r9_1192_TrMRF] | 1.82 ± 0.049
29 | SAGGPMKPFLKNFSGPEEAIAFVNKLREELKGPVGLTLIFPDGSVIEVVDPQKLESIDNFEVIVTVSESAGG [r13_620_JUSTAS] | 1.8 ± 0.085
30 | SAGGSAGGPLVLRIETPEDKVLVLVLPEEAEKLPPKELAEIAAKEFAALPGVKEVKVEIAPLPLSAGGSAGG [r6_710_TrMRF] | 1.11 ± 0.15
31 | SAGMKKTITIKIEVPEKPIRIIVEKNGKKEEITIKPGETVTIEIELEPGETLRIRIVNEDGEEFEFEIKSAG [r5_187_TrROS_Hall] | 3.45 ± 0.12
32 | SAGGSAGGSAGGMEKLSETVTETVEVTLTSGDKTYTFTVTTTTVVLPDGTVETLEVTLQPSAGGSAGGSAGG [r11_95_JUSTAS] | 3.42 ± 0.12
